{"source": "patent US20250250350A1", "about": "(ARSENAL BIOSCIENCES, published 2025)", "key": {"GP2 on K562-GP2 cells": {"molecular_target": "T1, GP2 on K562-GP2 cells (UniProt P55259 29-512, limits assumed)", "T1 construct": "whole, on cells", "T1 sequence (P55259 29-512 limits assumed)": "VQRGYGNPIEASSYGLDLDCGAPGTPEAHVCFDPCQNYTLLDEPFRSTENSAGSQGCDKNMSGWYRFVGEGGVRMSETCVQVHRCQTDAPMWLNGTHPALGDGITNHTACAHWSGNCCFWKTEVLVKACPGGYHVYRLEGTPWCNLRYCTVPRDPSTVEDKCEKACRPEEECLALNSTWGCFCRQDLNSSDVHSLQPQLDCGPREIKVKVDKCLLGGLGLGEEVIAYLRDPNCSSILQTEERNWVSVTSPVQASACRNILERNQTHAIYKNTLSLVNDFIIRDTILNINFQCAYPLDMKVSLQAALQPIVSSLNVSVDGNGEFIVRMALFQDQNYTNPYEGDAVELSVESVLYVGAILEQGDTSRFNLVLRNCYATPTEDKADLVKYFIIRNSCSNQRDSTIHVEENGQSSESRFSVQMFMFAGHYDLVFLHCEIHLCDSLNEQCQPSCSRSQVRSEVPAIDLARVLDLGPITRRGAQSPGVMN", "experiment": "24 h co-culture of MSLN CAR (LG1 CAR) T cells with K562-GP2 target cells, end-point luciferase cytotoxicity, RNP-only T cells as control", "description": "(§1) T cells from four donors were engineered to constitutively express the MSLN CAR (LG1 CAR) using the manufacturing process described in Example 1 and were frozen and cryobanked at Day 9 after initial activation. […] On the day of the assay, MSLN CAR and RNP only control T cells were counted and resuspended in medium without IL-7 and IL-15 and serially diluted and added to 96-well flat-bottom, white-walled assay plates. The serial dilution of T cells results in the following co-culture effector:target (E:T) ratios once 1e4 THP-1 or K562 (negative control), K562-MSLN (positive control) and K562-GP2 target cells were added/well: 3:1, 1:1, 1:3 in technical duplicates. Prepared plates with T cells and target cells were incubated at 37° C. for 24 hours with a breathable membrane on each plate. Cytotoxicity at the end of the 24 hour co-culture was measured using an end-point luciferase assay."}, "ALPG-AF647": {"molecular_target": "T2, ALPG-AF647 (human, UniProt P10696, AF647 fluorophore label, site not given)", "T2 construct": "soluble labelled staining reagent; Same protein as m5, here as a soluble staining reagent", "T2 sequence (P10696 20-503 limits assumed)": "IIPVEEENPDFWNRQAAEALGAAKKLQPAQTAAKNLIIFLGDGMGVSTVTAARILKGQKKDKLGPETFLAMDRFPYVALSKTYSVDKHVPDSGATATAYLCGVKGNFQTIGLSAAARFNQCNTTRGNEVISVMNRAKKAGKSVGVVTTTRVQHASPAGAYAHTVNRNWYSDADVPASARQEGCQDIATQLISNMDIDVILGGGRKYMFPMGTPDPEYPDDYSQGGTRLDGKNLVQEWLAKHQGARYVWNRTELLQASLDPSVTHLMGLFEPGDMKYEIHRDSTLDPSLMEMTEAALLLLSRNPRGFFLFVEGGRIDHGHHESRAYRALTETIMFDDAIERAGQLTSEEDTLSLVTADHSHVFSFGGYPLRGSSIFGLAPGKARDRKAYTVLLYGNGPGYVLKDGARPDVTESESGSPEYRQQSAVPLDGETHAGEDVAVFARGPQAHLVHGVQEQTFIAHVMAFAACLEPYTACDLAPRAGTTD", "experiment": "flow cytometry, primary T cells with constitutive CAR and no PrimeR, stained with ALPG-AF647 and MSLN-Bio / streptavidin-PE; reagent concentration not given"}, "SLC2A9 on THP-1 cells": {"molecular_target": "T3, SLC2A9 on THP-1 cells (UniProt Q9NRM0 1-540, limits assumed)", "T3 construct": "whole, on cells; also called SLC2A9+ cells (THP-1 cells)", "T3 sequence (looked up)": "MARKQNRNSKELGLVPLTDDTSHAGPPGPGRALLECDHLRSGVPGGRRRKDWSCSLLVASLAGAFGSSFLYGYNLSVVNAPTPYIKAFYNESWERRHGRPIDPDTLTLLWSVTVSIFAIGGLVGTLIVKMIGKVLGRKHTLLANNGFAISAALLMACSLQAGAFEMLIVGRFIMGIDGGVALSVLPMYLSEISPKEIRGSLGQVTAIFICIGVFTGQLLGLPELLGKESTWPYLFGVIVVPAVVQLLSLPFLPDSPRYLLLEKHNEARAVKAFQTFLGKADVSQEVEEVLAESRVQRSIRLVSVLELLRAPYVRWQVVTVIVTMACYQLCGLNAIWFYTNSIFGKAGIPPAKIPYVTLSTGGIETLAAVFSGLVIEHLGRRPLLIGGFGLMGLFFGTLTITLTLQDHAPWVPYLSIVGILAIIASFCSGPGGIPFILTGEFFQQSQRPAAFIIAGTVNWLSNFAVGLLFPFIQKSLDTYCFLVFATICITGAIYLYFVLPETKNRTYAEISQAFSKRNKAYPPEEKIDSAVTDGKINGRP", "experiment": "24 h co-culture of MSLN CAR (LG1 CAR) T cells with THP-1 (SLC2A9+) target cells, end-point luciferase cytotoxicity, RNP-only T cells as control", "description": "as §1"}}, "data": [{"binder": "MSLN CAR (LG1 CAR) (other, Chimeric antigen receptor on engineered primary human T cells; also called MSLN LG1 CAR) QLQLQESGPGLVKPSETLSLTCTVSGGSISNSYYWGWIRQPPGKGLEWIGSIYHSGNTYYNPSLKSRVTISVDTSKNQFSLKLSSVTAADTAVYYCVTQDGVGATTTEEYWGQGTLVTVSSAAATTTPAPRPPTPAPTIASQPLSLRPEACRPAAGGAVHTRGLDFACDIYIWAPLAGTCGVLLLSLVITLYCKRGRKKLLYIFKQPFMRPVQTTQEEDGCSCRFPEEEEGGCELRVKFSRSADAPAYQQGQNQLYNELNLGRREEYDVLDKRRGRDPEMGGKPRRKNPQEGLYNELQKDKMAEAYSEIGMKGERRRGKGHDGLYQGLSTATKDTYDALHMQALPPR", "values": [{"measurement": "binding result", "setting": "GP2 on K562-GP2 cells", "value": "no binding (tested: E:T 3:1)"}, {"measurement": "binding result", "setting": "ALPG-AF647", "value": "no binding"}, {"measurement": "binding result", "setting": "SLC2A9 on THP-1 cells", "value": "no binding (tested: E:T 3:1)"}]}]}
